What was measured:
Format in all cases: biochemical, Z. mays
[1] = test system: 4-hydroxyphenylpyruvate dioxygenase (HPPD); test: HPPD activity coupled assay with HGD; substrate saturation kinetic parameters (kcat, KM); details: Table 6; for kcat: single substitutions in SEQ ID NO:2
Experimental: Wild type and shuffled variant genes were cloned into pVER7062, a modified version of pET24a(+)(Novagen), which places six histidine residues at the N-terminus of the expressed protein. Vectors were electroporated into E. coli host strain BL21(DE3). Cells were grown at 30 C in rich medium such as 2×YT containing the selection antibiotic, kanamycin. At a density of about 0.6 OD600, IPTG was added to 0.2 mM, the temperature was reduced to 16 C and growth continued for another 24 hrs. Cells were harvested by centrifugation and stored at −80 C. Cell pellets were lysed in BPER (Pierce) protein extraction reagent containing 0.2 mg/ml lysozyme, 1 mM dithiothreitol, protease inhibitor cocktail (Sigma, bacterial cocktail) and endonuclease. Insoluble cellular debris was removed by centrifugation. HPPD protein was purified from the soluble protein solution by affinity chromatography on the nickel form of nitrilotriacetic acid (Ni-NTA) resin (Qiagen). Protein concentrations were determined by the Bradford method, as supplied by Bio-Rad.
HPPD catalyzes the conversion of 4-hydroxyphenylpyruvate (HPP) to homogentisate (FIG. 17). […] However, the product of the ensuing reaction in tyrosine metabolism, maleylacetoacetate, absorbs strongly at 320 nm. Furthermore, the enzyme catalyzing that reaction is also a dioxygenase having similar mechanism and buffer requirements as HPPD, making homogentisate dioxygenase (HGD) an ideal partner in a coupled assay, as shown.
The HDG gene from Pseudomonas aeruginosa (Amaya (2004) Arch Biochem Biophys 421, 135-142) was cloned into pVER7062 and electroporated into E. coli strain BL21(DE3). The enzyme was produced by methods similar to those described for HPPD. The purified enzyme has a KM for homogentisate of 23 μM and a kcat of 100/sec, properties highly suited for instantly converting the homogentisate produced by HPPD to maleylacetoacetate.
HPPD activity was measured by placing an aliquot (e.g., 6 μl) of the substrate HPP at 50-fold the desired final concentration into the wells of a low UV-absorbing assay plate. Reactions were started by adding a mixture (e.g., 294 μl) containing 25 mM Hepes, pH 7, 2 mM ascorbate, 10 μM FeSO4, 1 to 100 μM HPP, 50 nM HGD and 5 to 240 nM HPPD. Absorbance at 320 nm was monitored continuously in a plate-reading spectrophotometer (Spectramax, Molecular Devices).
The catalytic performance of wild-type HPPD and variants generated by shuffling was assessed by determining the substrate saturation kinetic parameters. The Michaelis-Menten kinetics protocol of the Spectramax software was customized for HPP concentrations ranging from 3.33 μM to 100 μM. Reaction rates were measured as described above for each concentration of HPP. The software returns values of KM and Vmax using the Lineweaver-Burke transformation of the Michaelis-Menten equation.

[2] = test system: 4-hydroxyphenylpyruvate dioxygenase (HPPD); test: ON rate ratio: HPPD reaction rate with vs without inhibitor in the 70 to 90 second interval; details: Table 5; tembotrione
Method in brief: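 Indicator of inhibitor on-rate: reaction velocity in the 70 to 90 second window with 4 μM inhibitor divided by that without. Reactions contained 100 μM HPP and 60 or 120 nM HPPD; slower binding gives a larger ratio.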

[3] = test system: 4-hydroxyphenylpyruvate dioxygenase (HPPD); test: OFF rate ratio: release of inhibitor from pre-formed enzyme-inhibitor complex; details: Table 5; tembotrione
Method in brief: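 Inhibitor release from pre-formed complex (enzyme 7.2 μM, inhibitor 8 μM, 1 h RT) tracked as accelerating HPPD activity at 320 nm over 12 min, coupled via 50 nM HGD with 100 μM HPP at pH 7. OFF rate ratio: steady-state velocity relative to uninhibited initial velocity.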

[4] = test system: 4-hydroxyphenylpyruvate dioxygenase (HPPD); test: Insensitivity parameter (ON × OFF) and trait fitness (ON × OFF × kcat/KM or × kcat); details: for ON × OFF × kcat, Value / ON × OFF × kcat, Fold vs wt / ON × OFF, fold vs wt / ON × OFF (parameters with tembotrione): Table 5, tembotrione; for ON × OFF × kcat, Fold vs wt / ON × OFF, fold vs wt: fold vs maize wild type HPPD; for ON × OFF (parameters with tembotrione): insensitivity parameter
Method in brief: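 Trait fitness combines catalysis and insensitivity as kcat/KM × ON rate ratio × OFF rate ratio. The insensitivity parameter is the product of ON and OFF rate ratios, used in place of KD because the ON rate ratio is inverse.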

[5] = test system: 4-hydroxyphenylpyruvate dioxygenase (HPPD); test: Estimate of kcat from initial rate at saturating hydroxyphenylpyruvate without inhibitor (ON rate ratio assay); details: Table 5; single substitutions in Round 7 variant 9070 (SEQ ID NO:2); estimate from initial rate at saturating hydroxyphenylpyruvate without inhibitor
Method in brief: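 kcat was estimated from the initial reaction rate with known enzyme level (60 or 120 nM HPPD). Hydroxyphenylpyruvate was at a saturating 100 μM, with no inhibitor present.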

[6] = DKN (diketonitrile form of isoxaflutole)
[7] = DKN (isoxaflutole diketonitrile)

Row | Molecule | Km [1] | kcat [1] | ON ratio (parameters with tembotrione) [2] | OFF ratio (parameters with tembotrione) [3] | Insensitivity parameter, ON × OFF [4, 6] | ON × OFF × kcat/km fold vs Round 7, variant 9070 [4, 7] | Insensitivity parameter, ON × OFF ([4]; Mesotrione, Table 6) | ON × OFF × kcat/km fold vs Round 7, variant 9070 ([4]; Sulco (sulcotrione)) | Insensitivity parameter, ON × OFF ([4]; Sulcotrione) | ON × OFF × kcat, Value [4] | ON × OFF × kcat, Fold vs wt [4] | ON × OFF, fold vs wt [4] | ON × OFF (parameters with tembotrione) [4] | Insensitivity parameter, ON × OFF ([4]; Tembotrione) | ON × OFF × kcat/km fold vs Round 7, variant 9070 ([4]; Topra (topramezone)) | Insensitivity parameter, ON × OFF ([4]; Topramezon) | ON × OFF × kcat/km fold vs Round 7, variant 9070 ([4]; meso (mesotrione)) | ON × OFF × kcat/km fold vs Round 7, variant 9070 ([4]; tembo (tembotrione)) | kcat [5]
1 | 214N: single substitution S214N in SEQ ID NO:2 (protein, Zea mays variant form created by artificial means.) MGPTPTATAAGAAVAAASAAEQAAFRLVGHRNFVRFNPRSDRFQTLAFHHVELWCADAASAAGRFSFALGVPLAARSDLSTGNSAHASLLLRSGSLSLLFTAPYAHGADAATAALPSFSAAAARRFAADHGLAVRAVALRVADAEDAFRASVAAGARPAFGPVDLGRGFRLAEVELYGDVVLRYVSYPDGAAGEPFLPGFEGVASPGAADYGLNRFDHIVGNVPELAPAAAYMAGFTGFHEFAEFTTEDVGTTESGLNSMALANNSENVLLPLNEPVHGTKRRSQIQTFLDHHGGPGVQHIALASDDVLRTLREMRARSAMGGFEFLPPPLSDYYDGVRRCAGDVLTEAQINECQELGVMVDRDDQGVLLQIFTKPVGDRPTFFLEIIQRIGCMEKDEKGQEYQKGGCGGFGKGNFGQLFKSIEDYEKSLEAKQAAAAATAQGS | 3.62 µM | 1.41 s⁻¹ | 0.76 | 0.19 | 0.33 | 1.4 | 0.48 | 1.1 | 0.59 | 5.04 | 4.71 | 27.9 | 0.14 | 0.25 | 1.2 | 0.32 | 1.1 | 1.3 | 0.59 s⁻¹
2 | 385I: single substitution L385I in SEQ ID NO:2 (protein, Zea mays variant form created by artificial means.) MGPTPTATAAGAAVAAASAAEQAAFRLVGHRNFVRFNPRSDRFQTLAFHHVELWCADAASAAGRFSFALGVPLAARSDLSTGNSAHASLLLRSGSLSLLFTAPYAHGADAATAALPSFSAAAARRFAADHGLAVRAVALRVADAEDAFRASVAAGARPAFGPVDLGRGFRLAEVELYGDVVLRYVSYPDGAAGEPFLPGFEGVASPGAADYGLSRFDHIVGNVPELAPAAAYMAGFTGFHEFAEFTTEDVGTTESGLNSMALANNSENVLLPLNEPVHGTKRRSQIQTFLDHHGGPGVQHIALASDDVLRTLREMRARSAMGGFEFLPPPLSDYYDGVRRCAGDVLTEAQINECQELGVMVDRDDQGVLLQIFTKPVGDRPTFFIEIIQRIGCMEKDEKGQEYQKGGCGGFGKGNFGQLFKSIEDYEKSLEAKQAAAAATAQGS | 2.29 µM | 0.768 s⁻¹ | 0.75 | 0.27 | 0.41 | 1.2 | 0.56 | 1.1 | 0.70 | 5.55 | 5.18 | 39.5 | 0.20 | 0.28 | 1.2 | 0.38 | 1.1 | 1.3 | 0.458 s⁻¹
3 | 158K: single substitution P158K in SEQ ID NO:2 (protein, Zea mays variant form created by artificial means.) MGPTPTATAAGAAVAAASAAEQAAFRLVGHRNFVRFNPRSDRFQTLAFHHVELWCADAASAAGRFSFALGVPLAARSDLSTGNSAHASLLLRSGSLSLLFTAPYAHGADAATAALPSFSAAAARRFAADHGLAVRAVALRVADAEDAFRASVAAGARKAFGPVDLGRGFRLAEVELYGDVVLRYVSYPDGAAGEPFLPGFEGVASPGAADYGLSRFDHIVGNVPELAPAAAYMAGFTGFHEFAEFTTEDVGTTESGLNSMALANNSENVLLPLNEPVHGTKRRSQIQTFLDHHGGPGVQHIALASDDVLRTLREMRARSAMGGFEFLPPPLSDYYDGVRRCAGDVLTEAQINECQELGVMVDRDDQGVLLQIFTKPVGDRPTFFLEIIQRIGCMEKDEKGQEYQKGGCGGFGKGNFGQLFKSIEDYEKSLEAKQAAAAATAQGS | 2.49 µM | 0.785 s⁻¹ | 0.77 | 0.27 | 0.38 | 1.0 | 0.54 | 0.9 | 0.63 | 10.44 | 9.76 | 40.6 | 0.21 | 0.29 | 1.1 | 0.37 | 1.0 | 1.3 | 0.84 s⁻¹
4 | 356R: single substitution E356R in SEQ ID NO:2 (protein, Zea mays variant form created by artificial means.) MGPTPTATAAGAAVAAASAAEQAAFRLVGHRNFVRFNPRSDRFQTLAFHHVELWCADAASAAGRFSFALGVPLAARSDLSTGNSAHASLLLRSGSLSLLFTAPYAHGADAATAALPSFSAAAARRFAADHGLAVRAVALRVADAEDAFRASVAAGARPAFGPVDLGRGFRLAEVELYGDVVLRYVSYPDGAAGEPFLPGFEGVASPGAADYGLSRFDHIVGNVPELAPAAAYMAGFTGFHEFAEFTTEDVGTTESGLNSMALANNSENVLLPLNEPVHGTKRRSQIQTFLDHHGGPGVQHIALASDDVLRTLREMRARSAMGGFEFLPPPLSDYYDGVRRCAGDVLTEAQINECQRLGVMVDRDDQGVLLQIFTKPVGDRPTFFLEIIQRIGCMEKDEKGQEYQKGGCGGFGKGNFGQLFKSIEDYEKSLEAKQAAAAATAQGS | 2.89 µM | 1.32 s⁻¹ | 0.75 | 0.21 | 0.21 | 1.1 | 0.44 | 1.1 | 0.53 | 5.97 | 5.58 | 30.0 | 0.15 | 0.16 | 1.1 | 0.24 | 1.1 | 1.2 | 0.652 s⁻¹
